# Data reported in patent EP4772535A1 (Chia Tai Tianqing Pharmaceutical Group Co., Ltd., dated 2026).
# Where a chain is given by its changes, count along the chain named.
# B1: ch3G9B1 (antibody, human IgG1, kappa, V domains shown)
# VH: QVQLQQSGTELARPGASVKLSCKASGYTFTSYGITWVKQRTGQGLEWIGEIYPRSGNTYFNEKFKGKATLTADKSSSTAYMELRSLTSEDSAVYFCARDRTGTGVDDYWGQGTTLTVSS
# VL: DIVLTQSPASLSMAIGEKVTIRCITNTDIDDDMSWYQQKPGEPPNLLISEGNTLRPGVPSRFSSSGYGRDFVFTIENMLSEDVADYYCLQSNNLPYTFGGGTKLEIKR
# notes: also called chimeric antibody of m3G9B1
# B2: ch29H5D8 (antibody, human IgG1, kappa, V domains shown)
# VH: EVQLQQSGAELARPGASVKLSCKASGYTFTNYGISWVKQRTGQGLEWIGEIYPRSVNTYYSAKFKGKATLTADKSSSTAYMELRSLTSEDSAVYFCARHYYGSSLDYWGQGTTLTVSS
# VL: DIVLTQSPASLSVATGEKVTIRCITSSDIEDDMNWYQQKPGEPPKLLISEGNSLRPGVPSRFSSSGYGTDFVFTIENTLSEDVADYYCLQSDNIFTFGSGTKLEIKR
# notes: also called chimeric antibody of m29H5D8
# B3: ch135A2B10 (antibody, human IgG1, kappa, V domains shown)
# VH: DVKLVESGGGLVTPEGSLKLSCAASGFAFSTYGMAWVRQTPEKRLEWVASIHKGGFSTYYPDNVKGRFTISRDNDKNTLYLQMSSLKSEDTAMYYCIRHDWDGAMDYWGQGTSVTVSS
# VL: DIVLTQSPSSMYASLGERVTITCKASQDINSYLNWFQQKPGKSPKTLIYRANRLVDGVPSRFSGSGSGQDYSLTISSLEYEDLGIYYCLQFDEFPYTFGGGTKLEIKR
# notes: also called chimeric antibody of m135A2B10
# B4: ch137G11D10 (antibody, human IgG1, kappa, V domains shown)
# VH: DVQLQESGPGLVKPSQSLSLTCTVTGYSITSDYAWNWIRQFPGNKLEWMGYITYSASTSYNPSLKSRISITRDTSKNQFFLQLNSVTTEDTATYYCARGAGTYYFDYWGQGSTLTVSS
# VL: DIVLTQSPASLSVATGEKVTIRCITSTDIDEDMNWYQQKPGEPPKLLISEDNSLRPGVPSRFSSSGYGTDFVLTIENTLSEDVADYYCLQTNNLPLTFGAGTKLEIKR
# notes: also called chimeric antibody of m137G11D10
# B5: hz29H5D8-3.1 (antibody, human IgG1, kappa, V domains shown)
# VH: QVQLVQSGAEVKKPGSSVKVSCKASGYTFTNYGISWVRQAPGQGLEWMGEIYPRSVNTYYAQKFQGRVTITADKSTSTAYMELSSLRSEDTAVYYCARHYYGSSLDYWGQGTLVTVSS
# VL: DIQMTQSPSSLSASVGDRVTITCITSSDIEDDMNWYQQKPGKAPKLLISEGNSLRPGVPSRFSSSGYGTDFTFTISSLQPEDIATYYCLQSDNIFTFGQGTKVEIKR
# notes: Humanized, human IgG1/kappa
# B6: hz29H5D8-2.1 (antibody, human IgG1, kappa, V domains shown)
# VH: B5 VH
# VL: B5 VL with S49Y
# notes: Humanized, human IgG1/kappa
# B7: hz135A2B10-1.2 (antibody, human IgG1, kappa, V domains shown)
# VH: QVQLVESGGGLVQPGGSLRLSCAASGFAFSTYGMAWVRQAPGKGLEWVASIHKGGFSTYYPDNVKGRFTISRDNDKNSLYLQMNSLRAEDTAVYYCIRHDWDGAMDYWGQGTLVTVSS
# VL: DIQMTQSPSSLSASVGDRVTITCKASQDINSYLNWYQQKPGKAPKTLIYRANRLVDGVPSRFSGSGSGQDYTLTISSLQPEDFATYYCLQFDEFPYTFGQGTKVEIKR
# notes: Humanized, human IgG1/kappa
# B8: hz135A2B10-1.3 (antibody, human IgG1, kappa, V domains shown)
# VH: B7 VH with G44R
# VL: B7 VL
# notes: Humanized, human IgG1/kappa
# B9: hz137G11D10-2.2 (antibody, human IgG1, kappa, V domains shown)
# VH: QVQLQESGPGLVKPSQTLSLTCTVSGYSITSDYAWNWIRQHPGKGLEWIGYITYSASTSYNPSLKSRVTISRDTSKNQFFLKLSSVTAADTAVYYCARGAGTYYFDYWGQGTLVTVSS
# VL: DIQMTQSPSSLSASVGDRVTITCITSTDIDEDMNWYQQKPGKAPKLLIYEDNSLRPGVPSRFSGSGYGTDFTLTISSLQPEDFATYYCLQTNNLPLTFGQGTKVEIKR
# notes: Humanized, human IgG1/kappa
# B10: hz137G11D10-1.1 (antibody, human IgG1, kappa, V domains shown)
# VH: B9 VH with F80S
# VL: ETTLTQSPAFMSATPGDKVNISCITSTDIDEDMNWYQQKPGEAAKLIISEDNSLRPGIPPRFSSSGYGTDFTLTINNIESEDAAYYFCLQTNNLPLTFGQGTKVEIKR
# notes: Humanized, human IgG1/kappa
# B11: hz137G11D10-3.1 (antibody, human IgG1, kappa, V domains shown)
# VH: B9 VH with F80S
# VL: B9 VL with Y49S, G64S
# notes: Humanized, human IgG1/kappa
# B12: hz137G11D10-3.2 (antibody, human IgG1, kappa, V domains shown)
# VH: B9 VH
# VL: B9 VL with Y49S, G64S
# notes: Humanized, human IgG1/kappa
# B13: hz137G11D10-1.2 (antibody, human IgG1, kappa, V domains shown)
# VH: B9 VH
# VL: B10 VL
# notes: Humanized, human IgG1/kappa
# Biological target: T1, ROR1 naturally expressed on human tumor cell lines (A549, Jeko-1, SW620, PA-1) (human, UniProt Q01973 30-937)
# T1 construct: whole, on cells; also called cells expressing ROR1
# Experiment: FACS on A549 cells naturally expressing ROR1
# T1 sequence (Q01973 30-937): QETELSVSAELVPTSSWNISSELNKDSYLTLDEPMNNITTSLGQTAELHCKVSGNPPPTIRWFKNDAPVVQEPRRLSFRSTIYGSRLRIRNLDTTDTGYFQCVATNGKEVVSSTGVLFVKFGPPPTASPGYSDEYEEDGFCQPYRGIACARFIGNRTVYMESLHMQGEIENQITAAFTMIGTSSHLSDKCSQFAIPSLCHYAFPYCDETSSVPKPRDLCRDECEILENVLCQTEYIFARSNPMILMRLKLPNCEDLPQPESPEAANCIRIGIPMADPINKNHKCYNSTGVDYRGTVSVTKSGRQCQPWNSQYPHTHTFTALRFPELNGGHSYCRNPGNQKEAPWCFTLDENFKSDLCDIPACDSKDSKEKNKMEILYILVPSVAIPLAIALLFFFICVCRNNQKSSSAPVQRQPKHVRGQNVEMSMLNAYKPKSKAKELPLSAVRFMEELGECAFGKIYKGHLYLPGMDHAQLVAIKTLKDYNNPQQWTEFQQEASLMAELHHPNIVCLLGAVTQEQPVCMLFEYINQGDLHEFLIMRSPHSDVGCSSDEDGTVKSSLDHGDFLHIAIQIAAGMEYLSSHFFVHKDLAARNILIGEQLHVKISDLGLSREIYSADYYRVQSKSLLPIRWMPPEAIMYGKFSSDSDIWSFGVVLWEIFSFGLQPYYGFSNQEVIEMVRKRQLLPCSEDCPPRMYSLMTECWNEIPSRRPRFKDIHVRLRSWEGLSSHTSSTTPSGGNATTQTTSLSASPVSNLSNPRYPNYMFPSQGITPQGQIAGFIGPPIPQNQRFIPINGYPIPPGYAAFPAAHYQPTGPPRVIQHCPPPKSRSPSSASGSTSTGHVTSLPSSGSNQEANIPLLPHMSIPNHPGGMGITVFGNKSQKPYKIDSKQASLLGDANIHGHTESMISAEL
EC50 [nM],Top (MFI),Binder
0.03,65200,B1
0.016,78500,B2
0.094,87800,B3
0.02,82800,B4

# Biological target: T1, ROR1 naturally expressed on human tumor …
# Experiment: FACS on PA-1 cells naturally expressing ROR1
EC50 [nM],Top (MFI),Binder
0.092,247000,B5
0.126,239000,B6

# Biological target: T1, ROR1 naturally expressed on human tumor …
# Experiment: FACS on PA-1 cells naturally expressing ROR1
# Remark: another data set of the same source
EC50 [nM],Top (MFI),Binder
0.217,238000,B7
0.192,249000,B8

# Biological target: T1, ROR1 naturally expressed on human tumor …
# Experiment: FACS on PA-1 cells naturally expressing ROR1
# Remark: another data set of the same source
EC50 [nM],Top (MFI),Binder
0.061,233000,B9
0.075,244000,B10
0.063,231000,B11
0.054,225000,B12
0.092,248000,B13

# Biological target: T1, ROR1 naturally expressed on human tumor …
# Experiment: FACS on SW620 cells naturally expressing ROR1
EC50 [nM],Top (MFI),Binder
0.048,20400,B1
0.01,27000,B2
0.06,29800,B3
0.01,27300,B4

# Biological target: T1, ROR1 naturally expressed on human tumor …
# Experiment: FACS on SW620 cells naturally expressing ROR1
# Remark: another data set of the same source
EC50 [nM],Top (MFI),Binder
0.011,30700,B5
0.015,28600,B6

# Biological target: T1, ROR1 naturally expressed on human tumor …
# Experiment: FACS on SW620 cells naturally expressing ROR1
# Remark: another data set of the same source
EC50 [nM],Top (MFI),Binder
0.034,30400,B7
0.047,29900,B8

# Biological target: T1, ROR1 naturally expressed on human tumor …
# Experiment: FACS on SW620 cells naturally expressing ROR1
# Remark: another data set of the same source
EC50 [nM],Top (MFI),Binder
0.009,28500,B9
0.013,32600,B10
0.009,30900,B11
0.011,30700,B12
0.013,31500,B13

# Biological target: T1, ROR1 naturally expressed on human tumor …
# Experiment: FACS on Jeko-1 cells naturally expressing ROR1
EC50 [nM],Top (MFI),Binder
0.01,61100,B1
0.011,70400,B2
0.037,71900,B3
0.012,71100,B4

# Biological target: T1, ROR1 naturally expressed on human tumor …
# Experiment: FACS on Jeko-1 cells naturally expressing ROR1
# Remark: another data set of the same source
EC50 [nM],Top (MFI),Binder
0.014,87700,B5
0.015,85000,B6

# Biological target: T1, ROR1 naturally expressed on human tumor …
# Experiment: FACS on Jeko-1 cells naturally expressing ROR1
# Remark: another data set of the same source
EC50 [nM],Top (MFI),Binder
0.022,89700,B7
0.024,86700,B8

# Biological target: T1, ROR1 naturally expressed on human tumor …
# Experiment: FACS on Jeko-1 cells naturally expressing ROR1
# Remark: another data set of the same source
EC50 [nM],Top (MFI),Binder
0.012,86100,B9
0.015,93200,B10
0.012,87000,B11
0.012,86800,B12
0.016,92500,B13

# Biological target: T2, human/cynomolgus monkey ROR1 protein (Acro Biosystems, Cat. No.: RO1-H522y) (human/cynomolgus monkey, UniProt Q01973 30-403)
# T2 construct: Bought SPR analyte
# Experiment: SPR (Biacore), antibody captured on anti-hIgG CM5 chip, ROR1 protein as analyte, 1:1 model
# T2 sequence (Q01973 30-403 limits assumed): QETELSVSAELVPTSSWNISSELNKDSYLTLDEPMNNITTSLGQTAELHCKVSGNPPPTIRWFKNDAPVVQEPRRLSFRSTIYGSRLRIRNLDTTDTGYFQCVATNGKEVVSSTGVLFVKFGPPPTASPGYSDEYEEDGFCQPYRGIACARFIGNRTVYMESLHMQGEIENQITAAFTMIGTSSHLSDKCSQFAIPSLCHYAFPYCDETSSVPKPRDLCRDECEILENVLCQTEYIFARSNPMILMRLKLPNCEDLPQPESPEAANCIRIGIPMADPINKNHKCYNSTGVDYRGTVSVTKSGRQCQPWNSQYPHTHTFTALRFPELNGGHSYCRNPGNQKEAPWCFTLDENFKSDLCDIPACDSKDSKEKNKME
Kd [nM],koff [s⁻¹],kon [M⁻¹ s⁻¹],Binder
27.1,0.0639,2.36e+06,B1
0.669,0.00248,3.7e+06,B2
0.586,0.000551,941000,B3
0.61,0.00315,5.16e+06,B4

# Biological target: T2, human/cynomolgus monkey ROR1 protein …
# Experiment: SPR (Biacore), antibody captured on anti-hIgG CM5 chip, ROR1 protein as analyte, method of Example 5
Kd [nM],koff [s⁻¹],kon [M⁻¹ s⁻¹],Binder
0.112,0.000218,1.95e+06,B5
0.589,0.000925,1.57e+06,B6
0.343,0.000811,2.37e+06,B9
0.145,0.000539,3.72e+06,B10
0.172,0.000492,2.86e+06,B11
0.16,0.000469,2.92e+06,B12
0.105,0.000414,3.94e+06,B13
0.569,0.000596,1.05e+06,B7
0.575,0.000567,985000,B8
